Data as given in PMC6565636, “Rif1 promotes association of G-quadruplex (G4) by its specific G4 binding and oligomerization activities”.

Key:
[1] = biological target: T1, Rif1 full-length (His6-Rif1-FLAG3) (Schizosaccharomyces pombe (fission …, UniProt Q96UP3 1-1400)); assay: EMSA; KCl; EMSA with oligos heat-denatured and renatured in 50 mM KCl/40% PEG200 (Fig 5: 50 mM Tris-HCl pH 7.5 with KCl, NaCl or none); gel shift buffer 40 mM Hepes-KOH pH 7.6, 50 mM KCl, 1 mM EDTA, 10% glycerol, 0.01% Triton X-100; pull-down 30 min at room temperature; +++/++/+ = >50/>16/>6% shift at 1 nM Rif1; details: protein: recombinant, tags: N-term His6, C-term FLAG3, label: 32P
T1 sequence: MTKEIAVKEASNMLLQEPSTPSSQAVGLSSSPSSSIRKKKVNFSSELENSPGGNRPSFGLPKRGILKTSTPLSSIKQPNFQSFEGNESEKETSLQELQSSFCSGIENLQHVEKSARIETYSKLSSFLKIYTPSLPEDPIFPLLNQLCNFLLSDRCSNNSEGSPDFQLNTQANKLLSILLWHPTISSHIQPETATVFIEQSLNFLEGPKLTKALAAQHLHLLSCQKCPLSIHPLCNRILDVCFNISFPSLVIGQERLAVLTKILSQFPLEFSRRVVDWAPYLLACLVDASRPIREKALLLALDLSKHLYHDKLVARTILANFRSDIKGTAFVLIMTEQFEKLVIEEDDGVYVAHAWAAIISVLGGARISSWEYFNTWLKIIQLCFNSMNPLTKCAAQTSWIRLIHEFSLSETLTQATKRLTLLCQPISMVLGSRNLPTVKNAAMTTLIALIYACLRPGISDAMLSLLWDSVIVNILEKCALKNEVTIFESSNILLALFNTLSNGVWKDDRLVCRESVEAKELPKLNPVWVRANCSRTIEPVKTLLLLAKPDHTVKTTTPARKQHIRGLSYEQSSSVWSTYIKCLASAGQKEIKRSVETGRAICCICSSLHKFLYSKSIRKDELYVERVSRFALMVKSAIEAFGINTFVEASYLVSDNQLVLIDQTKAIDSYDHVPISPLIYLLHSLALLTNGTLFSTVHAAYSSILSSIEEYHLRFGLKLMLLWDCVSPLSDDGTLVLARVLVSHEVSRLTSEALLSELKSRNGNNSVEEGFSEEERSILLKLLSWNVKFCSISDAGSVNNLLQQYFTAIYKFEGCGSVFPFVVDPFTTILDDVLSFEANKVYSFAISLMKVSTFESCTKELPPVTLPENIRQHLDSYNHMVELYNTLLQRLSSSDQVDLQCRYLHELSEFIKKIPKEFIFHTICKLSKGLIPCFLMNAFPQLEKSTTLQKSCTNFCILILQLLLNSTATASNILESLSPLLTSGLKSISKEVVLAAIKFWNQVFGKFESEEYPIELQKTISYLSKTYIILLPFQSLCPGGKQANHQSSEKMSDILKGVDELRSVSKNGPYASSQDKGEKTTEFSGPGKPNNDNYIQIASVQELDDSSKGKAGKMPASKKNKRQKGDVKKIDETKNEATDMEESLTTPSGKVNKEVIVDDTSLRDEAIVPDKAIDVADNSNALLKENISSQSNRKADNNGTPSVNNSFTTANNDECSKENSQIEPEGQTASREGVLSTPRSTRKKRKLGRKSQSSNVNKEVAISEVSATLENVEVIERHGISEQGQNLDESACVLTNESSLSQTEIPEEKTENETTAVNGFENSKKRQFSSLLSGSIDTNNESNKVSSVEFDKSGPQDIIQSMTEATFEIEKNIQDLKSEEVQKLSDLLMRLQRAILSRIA

[2] = biological target: T1, Rif1 full-length (His6-Rif1-FLAG3); assay: EMSA; KCl; three repeats most efficient; EMSA with oligos heat-denatured and renatured in 50 mM KCl/40% PEG200 (Fig 5: 50 mM Tris-HCl pH 7.5 with KCl, NaCl or none); gel shift buffer 40 mM Hepes-KOH pH 7.6, 50 mM KCl, 1 mM EDTA, 10% glycerol, 0.01% Triton X-100; pull-down 30 min at room temperature; +++/++/+ = >50/>16/>6% shift at 1 nM Rif1; details: protein: recombinant; tags: N-term His6, C-term FLAG3; label: 32P
[3] = biological target: T1, Rif1 full-length (His6-Rif1-FLAG3); assay: EMSA; as efficient as or slightly better than AGTGn; EMSA with oligos heat-denatured and renatured in 50 mM KCl/40% PEG200 (Fig 5: 50 mM Tris-HCl pH 7.5 with KCl, NaCl or none); gel shift buffer 40 mM Hepes-KOH pH 7.6, 50 mM KCl, 1 mM EDTA, 10% glycerol, 0.01% Triton X-100; pull-down 30 min at room temperature; +++/++/+ = >50/>16/>6% shift at 1 nM Rif1; details: protein: recombinant, tags: N-term His6, C-term FLAG3, label: 32P

GGGTTAGGGTTAGGGTTAGGGT (structured_DNA) [Htelo3]
binding result ([1]; hybrid G4 in K+ (CD)): no binding

AGGGCTAGGGCTAGGGCTAGGG (structured_DNA) [Htelo4]
binding result ([1]; antiparallel G4 (chair)): no binding

B1: DX1 (dsDNA)
DNA 1: CGCGAATTCGCG
DNA 2: CGCGAATTCGCG
binding result ([1]; blunt, self-complementary): no binding

ATCTGAGAATCAGAT (structured_DNA) [DX2]
binding result ([1]; hairpin): no binding

TTTTTTGAGAGAGAGAGAGAGAGAGAGAGA (ssDNA) [T6(GA)12]
binding result ([1]; no G4): no binding

AGGGAGGGAGGGAGGGTGG (structured_DNA) [CEB1_A]
binding result ([1]; parallel G4): binds

AGGGTAGGGAGGGAGGGTGG (structured_DNA) [CEB1_TA]
binding result ([1]; parallel G4 in KCl): binds

AGGGTTAGGGAGGGAGGGTGG (structured_DNA) [CEB1_TTA]
binding result ([1]; parallel G4 in KCl): binds

AGGGGGGAGGGAGGGT (structured_DNA) [CEB1_deltaGG]
binding result ([1]; parallel G4): binds

TAGGGAGGGTTAGGGTTAGGG (structured_DNA) [Htelo1_A]
binding result ([1]; hybrid or mix G4): no binding

TAGGGGGGTTAGGGTTAGGG (structured_DNA) [Htelo1_no_spacer]
binding result ([1]; parallel G4): binds

TAGGGTTAGGGTTAGGGGGG (structured_DNA) [Htelo1_no_spacer_2]
binding result ([1]; mix G4 in KCl, antiparallel in NaCl): binds

TTGGGGTGGGTGGGTGGGT (structured_DNA) [T95_2T_G]
binding result ([1]; parallel G4): no binding

TTGGGGGTGGGTGGGTGGGT (structured_DNA) [T95_2T_GG]
binding result ([1]; parallel G4): no binding

AGGGCTAGGGCTACTAGGGCTAGGG (structured_DNA) [Htelo4_3nt_spacer]
binding result ([1]; antiparallel G4): no binding

AGGGCTAGGGCTAGGGGGG (structured_DNA) [Htelo4(GGGGGG)]
binding result ([1]; hybrid G4): binds

AGGGCTAGGGCTACTAGGGGGG (structured_DNA) [Htelo4(GGGGGG)_3nt_spacer]
binding result ([1]; hybrid G4 in KCl, antiparallel in NaCl): binds

B2: Rif1-8 (70 nt) (structured_DNA)
DNA: GTGGGGGATGTGGGATAGACTATTTTAGACTTGAGACTGTGTATTCACTTAAAAGTGCTATGTGGGGGCA
binding result ([1]; parallel G4): binds

TGAGGGTGGTGAGGGTGGGGA (structured_DNA) [Pu24T]
binding result ([1]; parallel G4): binds

AGTGGG (ssDNA)
binding result [1]: no binding

AGTGGGAGTGGG (structured_DNA) [(AGTGGG)2]
binding result [1]: binds

AGTGGGAGTGGGAGTGGG (structured_DNA) [(AGTGGG)3]
binding result [2]: binds

AGTGGGAGTGGGAGTGGGAGTGGG (structured_DNA) [(AGTGGG)4]
binding result [1]: binds

AGTGGGGAGTGGGG (structured_DNA) [(AGTGGGG)2]
binding result [1]: binds

AGTGGGGAGTGGGGAGTGGGG (structured_DNA) [(AGTGGGG)3]
binding result [2]: binds

AGGGGGGAGGGAGGGTGG (structured_DNA) [CEB1]
binding result ([1]; parallel G4 (dimeric)): binds

AGTGGGGAGTGGGGAGTGGGGAGTGGGG (structured_DNA) [(AGTGGGG)4]
binding result [1]: binds

AGTGGGGGAGTGGGGG (structured_DNA) [(AGTGGGGG)2]
binding result [1]: binds

AGTGGGGGAGTGGGGGAGTGGGGG (structured_DNA) [(AGTGGGGG)3]
binding result [2]: binds

AGTGGGGGAGTGGGGGAGTGGGGGAGTGGGGG (structured_DNA) [(AGTGGGGG)4]
binding result [1]: binds

ACAGGGG (structured_DNA)
binding result [3]: binds

ACAGGGGACAGGGGACAGGGG (structured_DNA) [(ACAGGGG)3]
binding result [3]: binds

ACAGGGGG (structured_DNA)
binding result ([3]; slow-migrating multimers): binds

ACAGGGGGACAGGGGGACAGGGGG (structured_DNA) [(ACAGGGGG)3]
binding result [3]: binds

GGGGTGGGAGGAGGGT (structured_DNA) [93del]
binding result ([1]; parallel G4 (dimeric)): binds

TTGGGTTAGGGTTAGGGTTAGGGA (structured_DNA) [HT]
binding result ([1]; hybrid G4): no binding
